Earlier results, collected in patent US20040063697A1, “Compositions of cyclooxygenase-2 selective inhibitors and thrombolytic agents for the treatment or prevention of a vaso-occlusive event” (priority 2002, published 2004).

Experiments:
plasminogen = plasminogen (Homo sapiens, UniProt P00747)
[1] = for Elimination / Half-Life: in vivo
[2] = for Antigenicity: in vivo; for immune response: when administered to a human
minimal lumen diameter = conditions: single dose intravenous pretreatment before coronary stenting, at 6 months
[3] = system: vascular smooth muscle cells; conditions: in vitro
[4] = system: coronary intimal proliferation; conditions: oral administration, swine model of restenosis
restenosis = conditions: orally administered, stent implanted pig arteries

plasminogen, sequence (P00747 20-810 limits assumed): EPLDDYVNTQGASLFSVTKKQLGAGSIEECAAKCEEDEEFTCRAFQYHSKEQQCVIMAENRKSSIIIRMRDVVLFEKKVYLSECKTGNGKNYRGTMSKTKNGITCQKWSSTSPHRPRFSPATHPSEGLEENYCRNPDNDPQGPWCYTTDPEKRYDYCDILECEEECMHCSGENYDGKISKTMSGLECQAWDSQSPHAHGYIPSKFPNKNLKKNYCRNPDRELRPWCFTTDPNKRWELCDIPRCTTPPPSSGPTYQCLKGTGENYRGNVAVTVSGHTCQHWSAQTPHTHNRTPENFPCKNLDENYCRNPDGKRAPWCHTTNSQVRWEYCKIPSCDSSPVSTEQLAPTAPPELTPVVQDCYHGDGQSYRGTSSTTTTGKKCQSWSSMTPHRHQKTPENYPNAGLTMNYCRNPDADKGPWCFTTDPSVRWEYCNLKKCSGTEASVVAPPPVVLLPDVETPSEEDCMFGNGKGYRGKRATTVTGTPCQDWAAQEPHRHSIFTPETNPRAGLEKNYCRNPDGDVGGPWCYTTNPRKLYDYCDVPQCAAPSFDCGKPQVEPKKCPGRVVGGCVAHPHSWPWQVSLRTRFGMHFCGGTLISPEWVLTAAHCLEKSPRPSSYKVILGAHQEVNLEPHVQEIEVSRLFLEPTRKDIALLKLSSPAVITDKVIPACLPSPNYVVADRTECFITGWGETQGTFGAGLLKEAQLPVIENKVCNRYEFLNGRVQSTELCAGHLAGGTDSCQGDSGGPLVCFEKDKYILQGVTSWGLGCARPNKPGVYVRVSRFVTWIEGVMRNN

Row | Molecule | Method of Plasminogen Activation (plasminogen) | activation of fibrin-bound plasminogen versus circulating plasminogen (plasminogen) | Elimination [1] | Half-Life [1] [min] | Antigenicity [2] | immune response [2] | other results
1 | Urokinase | Direct | activates fibrin-bound plasminogen as well as circulating plasminogen | Hepatic | 15 to 20 | No | does not elicit an immune response | 
2 | C[C@H]1C[C@@H]2[C@H]([C@@H](O)C[C@@]3(C)[C@H]2CC[C@]3(O)C(=O)CO)[C@@]2(C)C=CC(=O)C=C12 [methylpridnisolone] |  |  |  |  |  |  | change in minimal lumen diameter (minimal lumen diameter): no effect
3 | t-PA: tissue plasminogen activators |  | highly specific for the activation of fibrin-bound plasminogen over circulating plasminogen |  |  |  |  | 
4 | COc1cc(/C=C/C(=O)CC(=O)/C=C/c2ccc(O)c(OC)c2)ccc1O [curcumin] |  |  |  |  |  |  | proliferation of vascular smooth muscle cells [3]: reduced proliferation
5 | Streptokinase: plasminogen activator produced by beta-hemolytic streptococci | Indirect | activate fibrin-bound plasminogen as well as circulating plasminogen | Hepatic | 15 to 25 | Yes | induce an immune response | 
6 | Alteplase: biosynthetic, glycosylated form of human t-PA | Direct |  | Hepatic | 4 to 8 | No | no immune response is elicited | plasma clearance time and half-life ([1]; in words): rapid plasma clearance time and a short half-life
7 | CN(C)CCCO[C@@H]1[C@H]2OC(C)(C)O[C@H]2O[C@@H]1[C@H](O)CO.Cl [aniprilose hydrochloride] |  |  |  |  |  |  | coronary intimal proliferation [4]: did not prevent
8 | COc1ccc(C=CC(=O)Nc2ccccc2C(=O)O)cc1OC [tranilast, N-(3,4-dimethoxycinnamoyl) anthranilic acid] |  |  |  |  |  |  | rate of restenosis (restenosis): lower rate of restenosis
